# Data reported in US20260069656A1, “Nutritive Polypeptides and Formulations Thereof, and Methods of Production and Use Thereof” (Axcella Health Inc., priority 2013, published 2026).
# Experiment: Intact half-life during simulated gastric fluid (SGF) digestion
# Details: SGF pH 1.5, pepsin:polypeptide 1:20 w/w, 37° C.; produced in E. coli unless otherwise noted
row,Molecule,SGF Half-life (t½) [s]
1,"SEQID-00338 (BS): nutritive polypeptide (protein, listed as Saccharomyces cerevisiae, strain ATCC 204508 / S288c) MSSSESIRMVLIGPPGAGKGTQAPNLQERFHAAHLATGDMLRSQIAKGTQLGLEAKKIMDQGGLVSDDIMVNMIKDELTNNPACKNGFILDGFPRTIPQAEKLDQMLKEQGTPLEKAIELKVDDELLVARITGRLIHPASGRSYHKIFNPPKEDMKDDVTGEALVQRSDDNADALKKRLAAYHAQTEPIVDFYKKTGIWAGVDASQPPATVWADILNKLGKD",12
2,"SEQID-00345: nutritive polypeptide (protein, Arthrospira platensis NIES-39) MNTLDLQNQRILVTGGAGFLGKQVIDQLLKAGAKSENISVPRSHNCDLRNLEACQQAAKGQDIIIHLAAHVGGIGLNQVKPAELFYDNLMMGTQLIHSAYQAGVKKFVCVGTICAYPKFTPVPFQEDDLWNGYPEETNAPYGIAKKALLVQLQAYRQQYGFNGIYLLPVNLYGPEDNFNPKSSHVIPALVRKVYEAQQRGDKQLPVWGDGSPSREFLYSTDAARGIVMATQHYDEPDPVNLGTNSEVTIRDLVELICELMEFQGEIVWETDKPNGQPRRCLDTNRAKERFGFVAEVEFRQGLKNTIDWYRQNPDL",48
3,"SEQID-00343: nutritive polypeptide (protein, Glycine max) MATLIAPSHHSRVEDAEALRNAFKGWGADDKAIIAILGHRNVHQRQEIRKAYEEIYQEDLIKRLESEISGDFERAMYRWMLQPADRDAVLVNVAIKNGTKDYHVIAEIACVLSAEELLAVRRAYHRRYKCSLEEDVAANTTGNLRQLLVGLVTSYRYEGDEINVKFSQTEANVLHESVKEKKGNSEEVIRILTTRSKTQLVATFNRYRDEHGISISKKLLDQTSDDFHKVLHTAIRCINDHKKYYEKVLRNAVKKFGTDEDGLSRVIVTRAEKDLKDIKELYYKRNSVHLEDEVSKETSGDYKKFLLTLLGK",18
4,"SEQID-00298 (AN): nutritive polypeptide naturally produced in Cow (protein, listed as Bos taurus) MGLSDGEWQLVLNAWGKVEADVAGHGQEVLIRLFTGHPETLEKFDKFKHLKTEAEMKASEDLKKHGNTVLTALGGILKKKGHHEAEVKHLAESHANKHKIPVKYLEFISDAIIHVLHAKHPSDFGADAQAAMSKALELFRNDMAAQYKVLGFHG",18
5,"SEQID-00298 (BS): nutritive polypeptide naturally produced in Cow (protein, listed as Bos taurus) MGLSDGEWQLVLNAWGKVEADVAGHGQEVLIRLFTGHPETLEKFDKFKHLKTEAEMKASEDLKKHGNTVLTALGGILKKKGHHEAEVKHLAESHANKHKIPVKYLEFISDAIIHVLHAKHPSDFGADAQAAMSKALELFRNDMAAQYKVLGFHG",6
6,"SEQID-00284: nutritive polypeptide (protein, listed as Arabidopsis thaliana) KLEHGVHVVSGTPGRVCDMIKRRSLRTRAIKLLILDESDEMLSRGFKDQIYDVYRYLPPDLQVCLVSATLPHEILEMTSKFMTEPVKILVKRDELTLEGIKQFFVAVEKEEWK",60
7,"SEQID-00346: nutritive polypeptide (protein, Arthrospira platensis NIES-39) MYYDADANLDLLAGKTIAIVGYGSQGHAHALNLKDSGMNVIVGLYPGSKSATKAKDAGLTVYPVDEAAKIADLIMILLPDEVQKTVYKNEIEPNLSEGKTLAFAHGFNIHFGQVVPPENVDVIMVAPKGPGHLVRRTYQEGQGVPCLFAVYQDASGQARDRAMAYAKGIGGTRGGILETTFREETETDLFGEQAVLCGGLSALIKAGFETLVEAGYQPELAYFECLHEVKLIVDLVVEGGLAQMRDSISNTAEYGDYTRGPRVITDATRAEMRKILKEIQTGQFAREFVLENQSGKAGFTAMRRQEAEHPIEEVGHDLRAMFSWLKKKA",12
